Key:
[1] = target: T1, DENV envelope domain III, serotype 3 (antigen of the Biacore assays) (Dengue virus serotype 3 (consensus …, UniProt Q5UB51 569-672)); test: SPR (Biacore X100), scFv m366 immobilised on CM5, antigen injected, 1:1 Langmuir fit
T1 construct: also called DIII serotype 3; DIII.3

[2] = target: T2, DENV envelope domain III, serotype 2 (antigen of the Biacore assays) (Dengue virus serotype 2 (consensus …, UniProt P14337 571-674)); test: as above
T2 construct: also called DIII serotype 2; DIII.2
T2 sequence (P14337 571-674 limits assumed): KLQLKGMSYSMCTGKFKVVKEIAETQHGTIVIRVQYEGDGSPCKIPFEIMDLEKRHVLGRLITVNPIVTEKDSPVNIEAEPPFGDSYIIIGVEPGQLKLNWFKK

[3] = target: T3, DENV envelope domain III, serotype 1 (antigen of the Biacore assays) (Dengue virus serotype 1 (consensus …, UniProt P17763 571-674)); test: as above
T3 construct: also called DIII serotype 1; DIII.1
T3 chain: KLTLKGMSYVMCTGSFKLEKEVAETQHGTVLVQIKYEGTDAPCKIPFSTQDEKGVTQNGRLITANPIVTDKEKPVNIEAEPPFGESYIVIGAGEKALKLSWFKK

[4] = target: T4, DENV envelope domain III, serotype 4 (antigen of the Biacore assays) (Dengue virus serotype 4 (consensus …, UniProt P09866 570-673)); test: as above
T4 construct: also called DIII serotype 4; DIII.4
T4 sequence (P09866 570-673 limits assumed): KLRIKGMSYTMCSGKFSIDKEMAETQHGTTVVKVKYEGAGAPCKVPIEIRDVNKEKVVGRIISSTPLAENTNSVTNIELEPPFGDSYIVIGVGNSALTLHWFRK

[5] = target: T1, DENV envelope domain III, serotype 3 …; test: SPR (Biacore)
[6] = target: T2, DENV envelope domain III, serotype 2 …; test: SPR (Biacore)
[7] = target: T3, DENV envelope domain III, serotype 1 …; test: SPR (Biacore)
[8] = target: T4, DENV envelope domain III, serotype 4 …; test: SPR (Biacore)
[9] = target: T1, DENV envelope domain III, serotype 3 …; test: SPR (Biacore); remark: listed apart in the source
[10] = target: T2, DENV envelope domain III, serotype 2 …; test: SPR (Biacore); remark: listed apart in the source
[11] = target: T3, DENV envelope domain III, serotype 1 …; test: SPR (Biacore)
[12] = target: T4, DENV envelope domain III, serotype 4 …; test: SPR (Biacore); remark: listed apart in the source

T1 sequence (Q5UB51 569-672 limits assumed): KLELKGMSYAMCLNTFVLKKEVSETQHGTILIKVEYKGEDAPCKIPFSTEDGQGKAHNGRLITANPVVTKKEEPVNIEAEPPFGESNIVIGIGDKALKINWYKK

B1: human anti-dengue virus antibody scFv m366 (scFv)
scFv: QLQLQESGGGLVQPGGSLRLSCAASGFTFSSYSMNWVRQAPGKRLEWVSSISGSSSYIYYADSVKGRFTISRDNAKNSLYLQMDSLRAEDTAVYYCARYAAGIWTFDIWGQGTTVTVSSGGGGSGGGASGGGGSSYELTQPPSVSVAPGKTASISCGGDNIGRKSVHWFQQKPGQAPVLVLYDDSDRPSGIPARFSGSNSGNTATLTISRVEAGDEADYYCQVWARSSDHPNWVFGGGTKLTVLG
notes: also called antibody m366
Kd [1]: 1.09 nM
koff [1]: 0.000204 s⁻¹
kon [1]: 186000 M⁻¹ s⁻¹
Kd [2]: 2.51 nM
Kd [3]: 6.14 nM
Kd [4]: 12.4 nM

B2: human anti-dengue virus antibody scFv m366.6 (scFv)
scFv: QLQLQESGGGLVQPGGSLRLSCAASGFTFSSHSMNWIRQAPGKRLEWVSSISSSSSYIYYADSVRGRFTISRDNAKNSLYLQMDSLRAEDTAVYYCARYMAGIWTFDIWGQGTMVTVSSGGGGSGGGASGGGGSSYELTQPPSVSVAPGKTASISCGGDNIGRKSVHWFQQKPGQAPVLVLYDDSDRPSGIPARFSGSNSGNTATLTISGVEAGDEADYYCQVWARSSDLPNWVFGGGTKLTVLG
notes: also called antibody m366.6
Kd [5]: 0.27 nM
Kd [6]: 0.29 nM
Kd [7]: 0.44 nM
Kd [8]: 0.75 nM

B3: human anti-dengue virus antibody scFv m360 (scFv)
scFv: QVTLKESGPTLVKRTQTLTLTCTFFGFSLSTSGMRVSWIRQPPGKALEWIARIDWDDDKFYSISLKSRLTISKDTSKNQVVLTMTNMDPVDTATYYCARTPYNWNDGPRGAFDIWGQGTMVTVSSEGGGSGGGASSGGGSQSVLTQPPSVSAAPGQKVTIPCSGSYSNIRNNYVSWYQQLPGTAPKLLIYDDNKRPSGIPDRFSGSKSGTLATLVITGLQSGDEADYYCGTWDSSLSGVVFGGGTKLTVLG
notes: also called antibody m360
Kd [9]: 0.116 nM
Kd [10]: 5.13 nM
Kd [11]: 5.84 nM
Kd [12]: 82.8 nM

B4: human anti-dengue virus antibody scFv m360.6 (scFv)
scFv: KVTLKESGPTLVKPRQTLTLTCTFSGFSLSTSGMRVSWVRQPPGKALEWIARIDWDDDKFYSTSLKTRLTISKDTFKNQVVLTMTNMDPVDTAMYYCVRTPYNWNDGPRGALDIWGQGTMVTVSSGGDRSDGGASGGGGSQSMLTQSPSVSAAPGQNVTISCSGDYPNIRNNYVSWYQQLPGAAPKLLIYDNNKRPSGIPDRFSGSKSGTSATLDITGLQTGDEADYYCGAWDSRLSAVVFGGGTKLTVLG
notes: also called antibody m360.6
Kd [5]: 0.0023 nM
Kd [6]: 0.24 nM
Kd [7]: 0.31 nM
Kd [8]: 33 nM

Reference: patent publication US20150218255A1 (US Dept. of Health and Human Services, published 2015)
